# The RNAGym collection of RNA variant scans (doi:10.7554/elife.80360)
# B1: Hairpin Ribozyme (parent)
# chain: GUCCUCUUUCACGUGCGCGUGAAAGAGAGAAGUGAACCAGAGAAACACACGUUGUGGUAUAUUACCUGGUA
# Variants of: B1
# Assay: self-cleavage, relative activity (ratio to wild type); higher = more cleavage; co-transcriptional
row,Variant,self-cleavage
1,U20C U63A,0.116
2,U20C U63G,0.169
3,G21A U70C,0.758
4,G21A U70G,0.821
5,U20G A61U,0.142
6,G21C G40A,0.258
7,G21C C48A,0.0883
8,G21A U53G,0.699
9,A22C U62C,0.196
10,U20G G40U,0.206
11,U20G G40A,0.296
12,A22C U63A,0.288
13,U20C G21C,0.778
14,G21A U52A,0.78
15,A22C C50G,0.126
16,A22C C50A,0.22
17,G21C A71U,0.794
18,A22C A36G,1.05
19,U20G A35G,0.559
20,U20G A35U,0.581
21,G21U G42C,0.36
22,U20G G69A,0.421
23,U20G G69C,0.284
24,U20G G69U,0.22

row,Variant,self-cleavage
1,G21U A71C,1.2
2,G21U A71U,0.754
3,G21U G32A,0.18
4,G21U G32C,0.145
5,A22C A31U,0.108
6,A22C A31G,0.642
7,A22C A31C,0.16
8,U20G A26U,0.683
9,G21C A31C,0.0833
10,G21C A31U,0.0322
11,G21C G54C,0.305
12,A22G A36C,0.515
13,A22G A36U,0.423
14,U20G C38G,0.119
15,G21C A24U,0.585
16,G21U G27A,0.25
17,U20G G56U,0.191
18,U20G G56A,0.0796
19,U20G A71C,1.25
20,G21A U62A,0.135
21,G21A U62C,0.199
22,A22C G57C,0.117
23,A22C G57U,0.162
24,G21A A41C,0.761

row,Variant,self-cleavage
1,G21A A41G,0.765
2,G21A A61C,0.253
3,G21A C50G,0.217
4,U20C G57U,0.341
5,U20C G57A,0.167
6,G21U U52G,0.661
7,U20G U63C,0.255
8,U20G U63A,0.171
9,U20G U63G,0.265
10,G21C A35G,0.666
11,U20G G29U,0.101
12,G21A A45C,0.16
13,G21A A45G,0.177
14,A22C G27C,0.123
15,U20G C37A,0.186
16,U20G U33C,0.109
17,G21A A31C,0.133
18,G21A A31G,0.424
19,G21C U55A,0.165
20,G21C U55C,0.204
21,G21C U55G,0.248
22,U20A U63A,0.261
23,U20A U63G,0.263
24,G21U A45U,0.218

row,Variant,self-cleavage
1,G21U A45C,0.218
2,G21U A45G,0.26
3,G21U A49U,0.189
4,U20C A71G,1.12
5,G21A G27C,0.195
6,G21A G27A,0.346
7,U20G A59U,0.123
8,G21C G27U,0.2
9,G21A A35U,0.653
10,G21C A39C,0.463
11,G21C U53G,0.58
12,U20C U33G,0.0535
13,U20C U33A,0.0957
14,U20C C37U,0.756
15,A22C A26G,0.557
16,U20G A24G,0.673
17,U20G A49C,0.172
18,U20G A49G,0.364
19,G21C A61U,0.304
20,G21C A61G,0.104
21,U20A U67G,0.256
22,G21U C46G,0.0824
23,U20C A61U,0.21
24,U20C A45C,0.105

row,Variant,self-cleavage
1,U20G C46A,0.229
2,U20G C46G,0.219
3,G21A A23U,0.825
4,G21A A23G,0.707
5,G21A A23C,0.683
6,G21U U70G,0.687
7,G21U U70A,0.791
8,A22G A35C,0.715
9,G21A U67A,0.23
10,G21A U67C,0.248
11,G21U C65U,0.234
12,G21U C65G,0.257
13,U20G U70G,0.994
14,G21C C65G,0.249
15,G21C C65U,0.304
16,G21A C48G,0.192
17,G21A U55C,0.242
18,G21A U55G,0.271
19,U20C A36C,0.526
20,U20C A36U,0.529
21,G21A A44G,0.142
22,G21A A44U,0.215
23,G21A A44C,0.116
24,U20C U52C,1.03

row,Variant,self-cleavage
1,U20C U52A,0.957
2,U20C U52G,1.12
3,U20C,0.963
4,U20G,0.879
5,G21C G69U,0.155
6,A22C G56A,0.165
7,U20G U58G,0.835
8,G21C U62A,0.206
9,G21C U62C,0.334
10,G21C A22G,0.786
11,U20C G42U,0.172
12,G21U G68C,0.187
13,U20C A64C,0.151
14,U20C A64G,0.558
15,G21A G34C,1.11
16,G21C A26G,0.528
17,U20G C66U,0.411
18,G21A U33A,0.151
19,G21C A49U,0.293
20,G21C A49C,0.17
21,G21C A49G,0.302
22,A22C G29A,0.0644
23,A22C G29U,0.131
24,G21U G57C,0.176

row,Variant,self-cleavage
1,U20C G54A,0.544
2,U20C G54U,0.386
3,U20C C48A,0.221
4,U20C A43G,0.105
5,G21A G40A,0.312
6,G21A G40C,0.169
7,U20C A31U,0.188
8,U20C G25C,0.513
9,U20C G25U,0.576
10,A22C A35G,0.679
11,A22C A35C,0.895
12,A22C A35U,0.746
13,G21U C48A,0.122
14,G21U C48G,0.132
15,G21U C48U,0.101
16,U20C G68A,0.251
17,G21U A26G,0.708
18,G21U A26U,0.561
19,G21U A31U,0.0962
20,A22C A45G,0.15
21,A22C C38A,0.124
22,A22C G40A,0.242
23,G21A G29A,0.166
24,U20C G69U,0.23

row,Variant,self-cleavage
1,G21U A35G,0.757
2,G21A A39G,0.306
3,G21A C46U,0.173
4,G21A C46G,0.254
5,U20C A26U,0.692
6,U20G A47C,0.299
7,U20G A47G,0.0572
8,A22G A26G,1.09
9,G21A A22C,0.581
10,G21A A22U,0.771
11,G21U G34C,1.08
12,U20C G51A,1.19
13,G21A G68U,0.165
14,U20G U62A,0.149
15,U20G U62G,0.323
16,G21U A47C,0.282
17,A22C U52A,0.821
18,G21A G51U,0.99
19,G21A G51C,0.771
20,G21A G51A,1.04
21,U20A U60G,0.592
22,U20C A30G,0.112
23,U20C U53C,0.998
24,G21A G56C,0.2

row,Variant,self-cleavage
1,U20G G57C,0.123
2,G21U A28G,0.98
3,G21U A28C,0.366
4,U20G A43C,0.214
5,U20G A43U,0.189
6,U20G A43G,0.206
7,A22C A24C,0.233
8,A22C A28G,0.807
9,G21C U33G,0.238
10,G21C U33C,0.145
11,U20C U58G,0.785
12,G21U G54A,0.582
13,G21U G54C,0.438
14,G21U G54U,0.329
15,U20G A36G,0.569
16,G21C U52G,0.654
17,G21U G25C,0.342
18,G21U G25U,0.461
19,G21U G29A,0.142
20,G21U G29U,0.106
21,U20G A39U,0.311
22,A22C A49G,0.512
23,G21U G51A,0.822
24,A22C U55A,0.217

row,Variant,self-cleavage
1,G21U U62C,0.272
2,U20G U60G,0.662
3,A22C G69C,0.366
4,U20C C50A,0.206
5,U20G C65U,0.374
6,G21A A24G,0.576
7,G21A A24C,0.563
8,G21U,0.844
9,G21C,0.812
10,G21A,0.809
11,G21C G56A,0.184
12,A22C U67G,0.204
13,G21U C37G,0.32
14,A22C A61U,0.204
15,A22C A61C,0.3
16,G21U C66A,0.236
17,G21U C66G,0.123
18,G21U U55G,0.2
19,U20G G25A,0.469
20,U20G G51C,0.572
21,U20G A45C,0.16
22,U20C A44U,0.115
23,U20C A44G,0.204
24,U20C A24C,0.612

row,Variant,self-cleavage
1,U20C G32A,0.274
2,U20C G27U,0.181
3,G21A U60G,0.533
4,G21U A41G,0.772
5,G21A U58C,0.916
6,G21A U58A,0.533
7,G21C A47G,0.157
8,G21U G40C,0.122
9,G21A G69C,0.246
10,G21A G69U,0.197
11,U20A U70A,0.784
12,U20A U70G,0.651
13,G21C A41G,0.606
14,G21C G42C,0.195
15,G21C G42A,0.216
16,A22C A71C,1.26
17,G21U G56U,0.147
18,G21U G56A,0.178
19,U20C U67A,0.213
20,G21C G25C,0.238
21,U20C A47C,0.358
22,U20C A47G,0.159
23,U20G U52A,1.09
24,U20G U52C,0.998

row,Variant,self-cleavage
1,U20G U53G,0.702
2,U20C A59U,0.157
3,U20C A59G,0.149
4,G21C G29C,0.119
5,G21C G29A,0.0976
6,G21U U33A,0.242
7,G21U U33G,0.127
8,A22C A44G,0.135
9,A22C G51A,0.93
10,A22C G51C,0.769
11,G21C U70C,0.965
12,G21C U70A,0.779
13,G21U A43C,0.146
14,G21U U67G,0.36
15,U20G G68A,0.14
16,U20G U67G,0.157
17,U20C A41C,1.11
18,A22C A41U,1.06
19,G21U A24G,0.805
20,G21A G57C,0.193
21,G21A G57U,0.232
22,G21C G34A,1.02
23,U20C U70A,1.08
24,U20C U70C,0.945

row,Variant,self-cleavage
1,U20C A49G,0.524
2,U20C G29A,0.181
3,U20G G27A,0.31
4,U20G C48U,0.228
5,A22C U33G,0.0647
6,U20G A28G,1.01
7,U20G A28C,0.462
8,A22G A39C,0.475
9,G21C G57C,0.143
10,G21C A23G,0.77
11,G21C A28C,0.412
12,G21C A28G,0.852
13,A22C A43G,0.249
14,U20C U60G,0.534
15,U20G G21A,0.846
16,U20G G21C,0.75
17,U20G A23C,0.83
18,U20C G40C,0.218
19,G21C C50U,0.256
20,G21C C50A,0.386
21,A22G A28U,0.673
22,A22G A28C,0.689
23,G21C C38G,0.154
24,A22G A23G,0.945

row,Variant,self-cleavage
1,U20C A22C,0.482
2,G21A G25A,0.239
3,G21A G25C,0.358
4,G21A C66A,0.201
5,G21U A61G,0.245
6,U20A U58C,0.847
7,A22C U58G,0.575
8,U20G A44G,0.143
9,U20G A44C,0.162
10,U20C G34A,1.15
11,U20C G34U,1.32
12,A22C,0.848
13,A22G,0.871
14,A22C C37A,0.25
15,A22C C37U,0.435
16,A22C C37G,0.368
17,U20G A41G,0.687
18,G21C G51C,0.803
19,G21C G51U,0.865
20,G21A A30G,0.238
21,G21A A30U,0.144
22,A22C A39U,0.461
